This is an account of results in patent publication US20060051737A1 (ROCKEFELLER UNIVERSITY, published 2006).

The target in this assay is T1, human Rif1 (human, UniProt Q5UIP0 1-2472).
T1 construct: Endogenous protein in extracts or fixed cells of human cell lines (e.g. HeLa); It is seen as a >250 kDa polypeptide; the predicted protein has 2472 amino acids and 274 kDa; also called hRif1
Put plainly: co-immunoprecipitation.

T1 sequence (Q5UIP0 other isoform, or with tags, fused parts or gaps limits assumed): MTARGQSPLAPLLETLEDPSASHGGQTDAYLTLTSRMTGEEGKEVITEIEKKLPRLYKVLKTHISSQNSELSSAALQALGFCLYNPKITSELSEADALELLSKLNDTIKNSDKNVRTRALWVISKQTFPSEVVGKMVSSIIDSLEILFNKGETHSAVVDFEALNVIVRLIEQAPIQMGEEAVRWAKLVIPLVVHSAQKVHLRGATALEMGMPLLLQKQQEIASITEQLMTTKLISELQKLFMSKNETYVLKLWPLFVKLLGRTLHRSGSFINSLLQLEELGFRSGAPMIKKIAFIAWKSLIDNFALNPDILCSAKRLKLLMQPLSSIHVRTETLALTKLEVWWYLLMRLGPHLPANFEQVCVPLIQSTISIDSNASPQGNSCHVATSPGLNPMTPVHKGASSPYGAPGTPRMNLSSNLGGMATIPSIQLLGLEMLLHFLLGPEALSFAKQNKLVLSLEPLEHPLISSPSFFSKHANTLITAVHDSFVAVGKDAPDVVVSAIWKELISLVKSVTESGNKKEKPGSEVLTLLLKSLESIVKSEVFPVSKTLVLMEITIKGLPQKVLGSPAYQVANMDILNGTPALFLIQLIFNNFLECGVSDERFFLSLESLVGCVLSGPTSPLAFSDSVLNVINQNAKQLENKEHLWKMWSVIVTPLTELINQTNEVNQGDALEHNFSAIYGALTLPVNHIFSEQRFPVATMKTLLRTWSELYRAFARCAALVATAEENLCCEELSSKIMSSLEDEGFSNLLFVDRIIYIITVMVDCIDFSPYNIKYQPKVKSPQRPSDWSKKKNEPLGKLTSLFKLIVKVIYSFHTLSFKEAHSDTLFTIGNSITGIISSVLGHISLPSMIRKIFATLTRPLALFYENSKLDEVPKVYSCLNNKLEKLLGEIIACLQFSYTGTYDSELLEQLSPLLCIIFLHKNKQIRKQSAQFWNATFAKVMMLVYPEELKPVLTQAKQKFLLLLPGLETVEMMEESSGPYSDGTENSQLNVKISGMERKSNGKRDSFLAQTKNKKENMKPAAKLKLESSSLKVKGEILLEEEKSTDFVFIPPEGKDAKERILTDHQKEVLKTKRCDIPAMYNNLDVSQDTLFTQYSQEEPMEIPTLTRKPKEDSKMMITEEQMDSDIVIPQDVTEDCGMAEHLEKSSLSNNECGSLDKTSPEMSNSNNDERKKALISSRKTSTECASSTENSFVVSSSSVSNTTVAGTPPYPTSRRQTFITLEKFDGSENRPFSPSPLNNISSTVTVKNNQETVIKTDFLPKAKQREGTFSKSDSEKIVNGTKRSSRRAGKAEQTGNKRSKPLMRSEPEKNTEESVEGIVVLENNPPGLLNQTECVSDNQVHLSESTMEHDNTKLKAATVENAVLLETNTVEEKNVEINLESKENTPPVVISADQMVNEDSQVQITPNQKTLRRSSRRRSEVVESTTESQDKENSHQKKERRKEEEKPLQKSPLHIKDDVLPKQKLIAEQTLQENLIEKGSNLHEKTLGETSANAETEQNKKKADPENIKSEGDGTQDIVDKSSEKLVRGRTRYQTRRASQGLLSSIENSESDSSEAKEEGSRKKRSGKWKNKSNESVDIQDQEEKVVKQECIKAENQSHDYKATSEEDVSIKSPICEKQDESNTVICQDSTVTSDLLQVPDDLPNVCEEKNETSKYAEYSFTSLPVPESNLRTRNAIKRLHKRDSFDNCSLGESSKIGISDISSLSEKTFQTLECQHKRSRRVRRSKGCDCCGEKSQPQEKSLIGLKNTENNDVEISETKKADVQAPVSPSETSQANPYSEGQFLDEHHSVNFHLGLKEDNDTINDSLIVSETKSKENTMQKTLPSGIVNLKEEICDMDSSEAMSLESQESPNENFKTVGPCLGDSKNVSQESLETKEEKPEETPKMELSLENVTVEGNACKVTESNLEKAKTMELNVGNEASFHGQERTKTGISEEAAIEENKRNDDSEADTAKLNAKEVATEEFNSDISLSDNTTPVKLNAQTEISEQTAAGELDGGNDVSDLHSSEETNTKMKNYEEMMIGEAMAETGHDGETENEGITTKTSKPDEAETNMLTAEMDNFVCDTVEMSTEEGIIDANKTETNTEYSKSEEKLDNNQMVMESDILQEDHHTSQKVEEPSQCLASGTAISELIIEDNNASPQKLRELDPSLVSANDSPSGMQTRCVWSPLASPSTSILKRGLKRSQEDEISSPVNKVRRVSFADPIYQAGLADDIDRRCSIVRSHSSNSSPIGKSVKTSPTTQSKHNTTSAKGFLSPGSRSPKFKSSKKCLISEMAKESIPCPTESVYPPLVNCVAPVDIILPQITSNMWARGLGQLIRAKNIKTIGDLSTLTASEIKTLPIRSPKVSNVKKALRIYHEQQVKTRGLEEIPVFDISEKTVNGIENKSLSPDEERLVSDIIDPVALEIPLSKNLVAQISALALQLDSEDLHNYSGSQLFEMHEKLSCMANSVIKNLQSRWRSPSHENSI

B1: TRF2 (other, human, UniProt Q15554 1-542, looked up)
chain: MAAGAGTAGPASGPGVVRDPAASQPRKRPGREGGEGARRSDTMAGGGGSSDGSGRAAGRRASRSSGRARRGRHEPGLGGPAERGAGEARLEEAVNRWVLKFYFHEALRAFRGSRYGDFRQIRDIMQALLVRPLGKEHTVSRLLRVMQCLSRIEEGENLDCSFDMEAELTPLESAINVLEMIKTEFTLTEAVVESSRKLVKEAAVIICIKNKEFEKASKILKKHMSKDPTTQKLRNDLLNIIREKNLAHPVIQNFSYETFQQKMLRFLESHLDDAEPYLLTMAKKALKSESAASSTGKEDKQPAPGPVEKPPREPARQLRNPPTTIGMMTLKAAFKTLSGAQDSEAAFAKLDQKDLVLPTQALPASPALKNKRPRKDENESSAPADGEGGSELQPKNKRMTISRLVLEEDSQSTEPSAGLNSSQEAASAPPSKPTVLNQPLPGEKNPKVPKGKWNSSNGVEEKETWVEEDELFQVQAAPDEDSTTNITKKQKWTVEESEWVKAGVQKYGEGNWAAISKNYPFVNRTAVMIKDRWRTMKRLGMN
In the case of B1, the binding result is on record as “no binding”.

B2: Rap1 (other, human, UniProt Q9NYB0 2-399, looked up)
chain: AEAMDLGKDPNGPTHSSTLFVRDDGSSMSFYVRPSPAKRRLSTLILHGGGTVCRVQEPGAVLLAQPGEALAEASGDFISTQYILDCVERNERLELEAYRLGPASAADTGSEAKPGALAEGAAEPEPQRHAGRIAFTDADDVAILTYVKENARSPSSVTGNALWKAMEKSSLTQHSWQSLKDRYLKHLRGQEHKYLLGDAPVSPSSQKLKRKAEEDPEAADSGEPQNKRTPDLPEEEYVKEEIQENEEAVKKMLVEATREFEEVVVDESPPDFEIHITMCDDDPPTPEEDSETQPDEEEEEEEEKVSQPEVGAAIKIIRQLMEKFNLDLSTVTQAFLKNSGELEATSAFLASGQRADGYPIWSRQDDIDLQKDDEDTREALVKKFGAQNVARRIEFRKK
notes: also called human Rap1
With B2, the binding result is “no binding”.

B3: TRF1 (other, human, UniProt P54274 2-439, looked up)
chain: AEDVSSAAPSPRGCADGRDADPTEEQMAETERNDEEQFECQELLECQVQVGAPEEEEEEEEDAGLVAEAEAVAAGWMLDFLCLSLCRAFRDGRSEDFRRTRNSAEAIIHGLSSLTACQLRTIYICQFLTRIAAGKTLDAQFENDERITPLESALMIWGSIEKEHDKLHEEIQNLIKIQAIAVCMENGNFKEAEEVFERIFGDPNSHMPFKSKLLMIISQKDTFHSFFQHFSYNHMMEKIKSYVNYVLSEKSSTFLMKAAAKVVESKRTRTITSQDKPSGNDVEMETEANLDTRKSVSDKQSAVTESSEGTVSLLRSHKNLFLSKLQHGTQQQDLNKKERRVGTPQSTKKKKESRRATESRIPVSKSQPVTPEKHRARKRQAWLWEEDKNLRSGVRKYGEGNWSKILLHYKFNNRTSVMLKDRWRTMKKLKLISSDSED
For B3, the binding result was “no binding”.
